This note sets out measurements from the nanobody polyreactivity screen of Harvey et al. (2022).

A short description of this data set: yeast display, Sf9 membrane polyspecificity reagent, FACS + sequencing; frameworks hold sequencing errors. Put shortly:
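Galactose induction of a Saccharomyces cerevisiae BJ5465 synthetic nanobody display library ran 36–48 hours. The cells were then stained for 1 hour at 4 °C with 10% biotinylated, detergent-solubilized Sf9 membrane reagent, pulled down on streptavidin microbeads and FACS-sorted into low and high (top ~1%) gates on expression and reagent-binding fluorescence. Labels for polyreactivity follow the gate of origin.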
Take “QVQLVESGGGLVQAGGSLRLSCAASGSISYFNAMGWYRPAPGKERELVAAITSGGSTYYADSVKGRFTISRDNAKNTVYLQMTSLKPEDTAVYYCNAPLEWGVYAAQNWDDGYWGQGTQVTVSS”: the “polyreactivity (PSR sort gate)” value is recorded as “low polyreactivity”.
Then “QVQLVESGGGLVQAGGSLRLSCAASGSTFGDYAMGWYRQAPGKREFVAAISFSGGNTYYADSVKGRFTISRDNAKNTVYLQMNSLKPEDTAVYYCNASSYPWEYYYLYYGYDYWGQGTQVTVSS”, with “low polyreactivity”; and “QVQLVESGGGLVQAGGSLRLSCAASGRIFGFYAMGWYRQAPGKERELVARITLSGGRTYYADSVKGRFTISRDNAKNTVYLQMNSLKPEDTEVYYCAADSIGRLWGYGYWGQGTQVTVSS”, with “high polyreactivity”; and “QVQLVESGGGLVQAGGSLRLSCDASGITFIRNGMGWYRQAPGKERELVAAISDTGARTYYADSVKGRFTISRDNAKNTVYLQMNSLKPEDTAVYYCAAEVRTRYLYSFRWDDYWGQGTQVTVSS”, with “low polyreactivity”.
Then “QVQLVESGGGLVQAGGSLRLSCAASGRSFSPYAMGWYRQAPGKERELVAAISYDDGITYYADSVKGRFTISRDTAKNTVYLQMNSLKPEDTAVYYCAADSVTRPAGDYWGQGTQVTVSS”, with “low polyreactivity”; and “QVQLVESGGGIVQAGGSLRLSCAASGSIFADYAMGWYRQAPGKERELVAVISRRGGTTYYADSVKGRFTISRDNAKNSVYLQMNSLKPEDTAVYYCAARRSFNEYDYWGQGTQVTVSS”, with “high polyreactivity”.
With “QVQLVESGGGLVQAGGSLRLSCAASGSIFDPYAMGGYRQAPGKERELVAAISFITGGTYYADSVMGRFTISRDNAMNTVYLQMNSLKPEDTAVYYCNADYFYKGGWVWRDEYWGQGTQVTVSS”, the “polyreactivity (PSR sort gate)” value is given as “high polyreactivity”.
With “QVHLVESGGGLVQAGGSLRLSCAASGSTIRFNAMGWYRQAPGKERELVAAISGSGGSTYYADSVKGRFTISRDNAKKTVYLQMNSLKPEDTAVYYCAASASSRSYFKSYYWGQGTQVTVSS” the entry was “high polyreactivity”; with “QVQLVDSGGGLVQAGGSLRLSCAASGRIFRSYAMGWYRQAPGKERELVAGISSTGGNTYYADSVKGRFTISRDNAKNTVYLQMNSLKPEDTAVYYCAAYWFRGYKYWGQGTQVTVSS”, “high polyreactivity”.
With “QVQPVESGGGLVQAGGSLRLSCAASGSTFTVNAMRWYRQPPGNERELVAAITFSGTSTYYADSVKGRFTISRDNAKNTVYLQMNSLKPEDTAVYYCNAVVWGYSKSLGDTRTKYEYWGQVTQVTVSS” the entry was “high polyreactivity”; with “QVQLVESGGGLVQAGGSLRLSCAASGSIFRYNTKGWYRQATGKERELDAAINWSGGNTYYADSVKGRFTISRDNAKNTVYLQMNSLKPEDTAVYYCAARWPSYVSYRYYTKYDYWGQGTQVTVSS”, “high polyreactivity”; with “QVQLVESGGGLVQAVSSLRLSCAASGYIFDRNAMGWYRRAPGKERELVAAITKRGGITYYADSVKGRFTISRDNAKNTVYLQMNSLKPEDTAVYYCAAKTLYNSGTQDRAMGYWGQGTQVTVSS”, “high polyreactivity”.
With “QVQLVESGGGLVQAGGSLRLSCAASGSTFWPNAMGWYRQAPGKERELVAAITGGGGTNYADSVKGRFTISRDNAKNTVYLQMNSLKPEDTAVYYCAAKKVNSRSHVKYYYWGQGTQVTVSS” the entry was “high polyreactivity”; with “QVQLVESGGGLVQAGGSLRLSCAASVSIFGVKVMGWYRQAPGKERELVAAIDVSDTSTYYADSVKGRFTISRDNAKNTVYLQMNSLKAEDTAVYYCAARRTRYPFQFDYWGQGTQVTVSS”, “low polyreactivity”.
Regarding “QVQLVESGGGLVQAGGSLRLSCAASGFIFYSYAMGWYRQAPGKERELVAAITYSGGSTYYADSVKGRFTISRDNAKNTVYLQMNSLKPEDTAVYYCADDYYHPGYIYEYWGQGTQVTVSS”, the “polyreactivity (PSR sort gate)” value is listed as “low polyreactivity”.
For the sequence “QVQLVESGGGLVQAGGSLRLSCAASGFIFIYNAMGWYRQAPGKERELVAAITGSDGGTFYADSVKGRFTISRDNAKNTVYLQMNSLKPEDTAVYYCNADNGSRQSRDGYESWGQGTQVTVSS”, the “polyreactivity (PSR sort gate)” value was “low polyreactivity”.
For the sequence “QVQLVESGGGLVQAGGSLRLSCAASGRIFRGYAMGWYRQAPGKERELVARITSGGRTYYADSVKGRFTISRDNAKNTVYLQMNSLKPEDTAVYYCATVGRGYDERHNYWGQGTQVTVSS”, the “polyreactivity (PSR sort gate)” value is “high polyreactivity”.
Then “QVQLVESGGGLVQAGGSLRLSCAASGRTFKPYAMGWYRQAPGKERELVAAIRSAGTTNYADSVKGRFTISRDNAKNTVYLQMNSLKPEDTAVYYCNAGTYLRRYYGFDYWGQGTQVTVSS”, with “high polyreactivity”; and “QVQLVESGGGLVQAGGSLRLSSAASGFTLYYYTMGWYRQAPGKERELVAAITSGGDTYYADSVKGRFTISRDNAKNTVYLHMHSLKPEDTAVYYCAADYGTQYGEYTYYDYDYWGKGTQVTVSS”, with “low polyreactivity”.
In the case of “QVQLVESGGGLVQAGGSLRLSCAASGRIFLSNALGWYSQAPGKERELVAALSWTGGSTYYADSVTGRFTISRDNAKNTVYLQMNSLKPEDTAVYYCAASTVGQTYSYYVDTYDYWGQGTQVTVSS”, the “polyreactivity (PSR sort gate)” value is reported as “low polyreactivity”.
For “QVQLVESGGGLVQAGGSLRLSCAASGRIFPSYDMGWYRQAPGKDRELVATISSRGDSTYYADSVKGRFTISRDNAKNTVYLQMNSLKPEDTAVYYCAAERPFWEYDYWGQGTQVTVSS”, the “polyreactivity (PSR sort gate)” value is reported as “low polyreactivity”.
As to “QVQLVESGGGLVQAGGSLRLSCAASGFIFSGNAMGWYRQAPGKERELVARIRSGDRTYYADSVKGRFTISRDNAKNTVYLQMNSLKPEDTAVYYCAAYAWYDWRSYFPILGYEYWGQGTQVTVSS”, the “polyreactivity (PSR sort gate)” value is on record as “low polyreactivity”.
Then “QVQLVESGGGLDQARGSLRLSCAASGRTFWTNVMGWYRQAPGKERELVAAITSSTDSTYYADSVKGRFTISLDNAKNTVYLQMNSLKPEDTAVYYCATVVRLYRGRYRYDYWGQGTQVTVSS”, with “high polyreactivity”; and “QVQLVESGGGLVQAGGSLRLSCAASGSIFPYNAMGWYRQAPGKERELVATINSRGGRTYYADSVKGRFTISRDNAKNTVYLQMNSLKPEDTAVYYCARYYSSALRYGYWGQGTQVTVSS”, with “low polyreactivity”; and “QVQLEESGGGLVQAGGSLRLSCAASGFTFKRYAMGSYRQAPGKEREFVAAITRGGGSTYYADSVKGRFTISRDNAKNSVYLQMNSLKPEDTAVYYCAADPQYTIRDYWGQGTQVTVSS”, with “high polyreactivity”.
Then “QVQLVESGGGLVQAGGSLRLSCAASGRIFGRNPMGWYRQAPGKERELVAAITSRGTRTYYADSVKGRFTISRDNAKNTVYLQMISLKPEDTAVYYCNAAYYHSSSYPDYDYWGQGTQVTVSS”, with “high polyreactivity”; and “QVQLVESGGGLVQAGGSLRLSCAASGFTFDENAMGWYRQAPGINYSGASTYYADSVKGRFTISRDNATNTVYLQMNSLKPEDTAVYYCAAEVVAQMNYWGQGTQVTVSS”, with “low polyreactivity”.
Then “QVQLVESGGGLVQAGVSLRLSCAASGSIFVYNAMGWYRQAPGKERELVAAISSSGTRTYYADSVKARFTISRDNAKNTVYLQMNSLKPEDTAVYYCAAYYVPWGTLYHLDYWGQGTQVTVSS”, with “high polyreactivity”; and “QVQLVESGGGLVQAGGSLRLSCAASGSTFFVYAMGWYRQPPGKERELVADINWSSGITYYADSVKGRFTISRDNAKNNVYLQMNSLKREDTAVYYCKKDERYVTWSYFPNRYNYWGQGTQVTVSS”, with “low polyreactivity”; and “QVQLVESGGGLVHAGGSLRLSCAASGFIFFSNAMGWYRQAPGKERELVATISTSSGSTYADSVKGRFTNSRDNAKNTVYLQMNSLKPEDTAVYYCAADTQGYDYDYWGQGTQVTVSS”, with “low polyreactivity”.
Take “QVQLVESGGGLVQAGGSLRLSCAASGYIFWSYAMGWYRQAPGKERELVAGITASGGSTYYADSVKGRFTISRDNAKNTVYLQMNSLKPEDTAVYYCAAEAYTQYWIYYYWGQCTQVTVSS”: the “polyreactivity (PSR sort gate)” value was “high polyreactivity”.
Turning to “QVQLVESGGCLVQAGGSLRLSCAASGFTFTTYAMGWYRQAPGKEREFVAALTKRGGRTYYADSVKGRFTISRDNAKITVYLQMNSLKPEDTAVYYCNKVVHSFPFPYRYDMDYWGQGTQVTVSS”, the “polyreactivity (PSR sort gate)” value is given as “high polyreactivity”.
For “QVQHVESGGGLVQAGGSLRLSCAASGITFYRYAMGWYIQAPGKERELVAAINASGGSTYYADSVKGRFTISRDKAKNTVYLQMNSLKPEDTAVYYCAADRVSWVKHYYWGQGTKVTVSS”, the “polyreactivity (PSR sort gate)” value is “high polyreactivity”.
On to “QVQLVESGGGLVQAGGSLRLSCDASGSIFRAYAMRWYRQAPGKERELVAAISSSSGRTYYADSVKGRFTISRDNAKTTVYLQLNSLKPEDTAVYYCAVTASTLVTSATYDYWGQGTQVTLSS”, for which the “polyreactivity (PSR sort gate)” value was “low polyreactivity”.
Regarding “QVQLVESGGGLVQAGGSLRLSCAASGRIFAQYAMGWYRQAPGKERELVAGIDRRGGSTYYADSVKGRFTISRDNAKNTVYLQMNILKPEDTAVYYCAAYGTTGVYRGPGYDYWGQGTQVTVSS”, the “polyreactivity (PSR sort gate)” value is “low polyreactivity”.
Then “QVQLVESGGGLVQAGGSLRLSCAASGRIFDRNAMGWYRQAPGKERELVAAISWSGGRTYYADSVKGRFTISRDNAKNTVYLQMNSLKPEDTAVYYCAADHYPWWAWEFDYWGQGTQVTVSS”, with “low polyreactivity”; and “QVQLVESGGGLVQAGGSLRLSCAASGRIFGRYAMGWYRQAPGKERELVAAITGRGASTYYADSVKGRFTISRDNAKNTVYLQMNSLKPEDTAVYYCNAFRGAQGTDAYDWGQGTQVTVSS”, with “low polyreactivity”.
Then “QVQLVESGGGLVQAGGSLRLSCAASGRILAANAMRWYRQAPGKERELVAAISWSGGRTYYADSVKGRFTISRDNAKNTVYLQMNSLKPEDTAVYYCASVRRYKMDYWGQGTQVTVSS”, with “high polyreactivity”.
With “QVQLVESCGGLVQAGGSLRLSCAASGSTFYRYAMGWYRQAPGKERELVARITRTGGITNYADSVKGRFTISRDNAKNTVYLQMNSLKPEDTAVYDCAKTNIRDHYYWGQGTQVTVSS” the entry was “high polyreactivity”; with “QVQLVESGGGLVQAGGSLRLSCAASGRIFLANAMGWSRQAPGKERELVAAISLSGGRTYYADSVKGRFTISRDNAKNTVYLQMNSLKPEDTAVYYCAAEFYPIRYYGGYDYWGQGTLVTVSS”, “low polyreactivity”.
With “QVQLVESGGGLVQAGGSLRLSCAASGRTFSGYAMGWYRQAPGKERELVAGITWNGGRTYYADSVKGRFTISRDNAKNTVSLQMNSLKPEDTAVYYCNKLGAVYPKYGYWGQGTQVTVSS”, the “polyreactivity (PSR sort gate)” value is reported as “high polyreactivity”.
